From US20200399386A1 (CELGENE, published 2020)
Residue numbers refer to the chain shown, from its start.

B1: 320262 (antibody, IgG1, V domains shown)
VH: QLQLQESGPGLVKPSETLSLTCTVSGGSISNSNYYWGWIRQPPGKGLEWIGNIYYSGRTYYTPSLKSRVTISEDTSKNQFSLKVRSVTVADTGVYYCARPDYYGSGTIAWGQGTLVTVSS
VL: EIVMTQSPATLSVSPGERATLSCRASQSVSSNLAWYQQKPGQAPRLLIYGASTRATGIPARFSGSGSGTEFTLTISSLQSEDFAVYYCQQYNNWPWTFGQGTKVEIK
B2: 319883 (antibody, IgG1, V domains shown)
VH: QLQLQESGPGLVKPSDTLSLTCTVSGGSISSSNSYWGWIRQSPGRGLEWIGRIYYSGITHYNPSLKSRVTISVDTSKNQFSLKLSSVTAADTAVYYCASPYKWNDGNFFGWGQGTLVTVSS
VL: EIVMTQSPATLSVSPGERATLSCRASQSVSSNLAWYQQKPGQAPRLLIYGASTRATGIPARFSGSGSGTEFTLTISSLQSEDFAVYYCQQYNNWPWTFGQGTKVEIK
B3: 320199 (antibody, IgG1, V domains shown)
VH: B2 VH with D16E
VL: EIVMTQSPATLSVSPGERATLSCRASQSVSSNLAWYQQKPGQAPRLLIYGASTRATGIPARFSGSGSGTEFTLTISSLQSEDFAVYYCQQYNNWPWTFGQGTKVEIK
notes: also called human IgG antibody 320199
B4: 319966 (antibody, IgG1, V domains shown)
VH: QLQLQESGPGLVKPSETLSLTCTVSGSSISRSNYYWGWIRQPPGKGLEWIGTFYYSGTTYYNPSLKSRVTISEDTSKKQLSLNLRSVTAADTAVYYCARPSGYTTSWGQGTLVTVSS
VL: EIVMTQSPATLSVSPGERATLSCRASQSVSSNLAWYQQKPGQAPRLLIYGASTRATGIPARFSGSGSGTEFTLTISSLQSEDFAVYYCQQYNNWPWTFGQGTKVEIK
notes: also called human IgG antibody 319966
B5: 320111 (antibody, IgG1, V domains shown)
VH: QLPLQESGPGLVKPSETLSLTCTVSGGSIRSSSYYWGWIRQPPGKGLEWIGTIYYSGSTYYNPSLKSRVTISVDTSKNQLSLKLSSVTAADTAVYYCARPYYDSSGYYYYWGQGTLVTVSS
VL: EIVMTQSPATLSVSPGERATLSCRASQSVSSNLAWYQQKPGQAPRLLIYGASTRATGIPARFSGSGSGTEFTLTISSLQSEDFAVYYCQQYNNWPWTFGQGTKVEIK

Tests used:
TACI = molecular target: T1, TACI (UniProt O14836 1-293, limits assumed); assay: flow cytometry, dose response on NUDHL1 cells
T1 construct: whole, on cells
T1 sequence (looked up): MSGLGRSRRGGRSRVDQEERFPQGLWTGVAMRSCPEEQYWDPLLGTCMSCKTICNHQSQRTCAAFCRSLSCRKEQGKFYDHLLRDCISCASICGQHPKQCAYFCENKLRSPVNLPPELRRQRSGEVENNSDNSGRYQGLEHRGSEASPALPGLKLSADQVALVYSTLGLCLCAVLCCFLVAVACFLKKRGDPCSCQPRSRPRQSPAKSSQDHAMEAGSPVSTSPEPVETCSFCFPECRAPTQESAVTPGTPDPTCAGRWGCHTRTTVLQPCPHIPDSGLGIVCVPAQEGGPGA
Description: (§1) FACS Analysis: FACs antibodies used in this study include: 1) LS-C106982-100 Mouse Monoclonal to Human TNFRSF12A-R-Phycoerythrin (PE) (LifeSpan BioSciences, Inc.); 2) EM901 has been previously characterized as a BCMA-binding antibody (Mab42; International Application Number WO2017/021450); 3) Ebiosciences anti-human IgG Fey-specific, labeled with PE; 4) Human IgG isotype control; 5) Anti-TACI antibody [1A1](Abcam); 6) BAFF Receptor antibody 8A7 (ThermoFisher); 7) BCMA antibody 19F2 (BioLegend). Each cell type (75,000 cells/well) was incubated with primary antibodies in FACs buffer (PBS containing 0.2% BSA) for 25 min in a 96 well plate. Cells were washed once with FACs buffer and incubated with 1:100 dilution secondary antibody for 25 min. After washing once, cells were fixed for 10 min with 1% paraformaldehyde, washed with FACs buffer and resuspended in 100 μL FACs buffer. Labeled cells were analyzed using an Attune NxT Flow Cytometer and data processed using FlowJo 10.0.8r1 (FLOWJO LLC), according to the manufacturer's instructions.
(§2) The reactivity of each mAb was monitored by FACs. […] Geometric means quantifying these binding interactions are shown (FIG. 5).

BAFF receptor = molecular target: T2, BAFF receptor (UniProt Q96RJ3 1-184, limits assumed); assay: flow cytometry, dose response on NUDHL1 cells
T2 construct: whole, on cells
T2 sequence (looked up): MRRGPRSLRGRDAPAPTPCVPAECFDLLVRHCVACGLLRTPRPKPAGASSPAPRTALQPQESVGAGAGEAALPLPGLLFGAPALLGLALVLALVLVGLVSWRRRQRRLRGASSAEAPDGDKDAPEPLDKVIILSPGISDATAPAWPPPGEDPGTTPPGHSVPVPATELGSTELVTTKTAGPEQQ
Description: as §1, §2

human BCMA [1] = molecular target: T3, human BCMA (human, UniProt Q02223 1-184); assay: flow cytometry on C6 cells expressing human BCMA
T3 construct: whole, on cells; Transfected (C6-BCMA) and endogenous (myeloma lines) forms are treated as the same protein on cells; also called B-cell maturation antigen; TNFRSF17
T3 sequence (looked up): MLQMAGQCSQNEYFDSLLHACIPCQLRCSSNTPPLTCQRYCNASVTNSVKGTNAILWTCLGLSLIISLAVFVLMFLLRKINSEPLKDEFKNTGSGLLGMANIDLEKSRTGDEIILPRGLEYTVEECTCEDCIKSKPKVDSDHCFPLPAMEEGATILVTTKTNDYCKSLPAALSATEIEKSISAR
Description: as §1
(§3) The reactivity of each antibody was monitored by FACs. […] Geometric mean values quantifying these binding interactions are included (FIG. 2).

human TNFRSF12A = molecular target: T4, human TNFRSF12A (human, UniProt Q9NP84 28-129); assay: flow cytometry on Hek293 cells stably transfected with human TNFRSF12A
T4 construct: whole, on cells; also called TWEAKR
T4 sequence (looked up): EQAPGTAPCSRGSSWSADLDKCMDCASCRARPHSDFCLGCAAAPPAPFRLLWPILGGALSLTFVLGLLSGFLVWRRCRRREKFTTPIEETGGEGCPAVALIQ
Description: as §1
The reactivity of each antibody was monitored by FACs. An anti-TNFRSF12A antibody stained Hek293-TNFRSF12A cells, indicative of TNFRSF12A expression. […] Geometric means quantifying these binding interactions are shown (FIG. 3).

human BCMA [2] = molecular target: T3, human BCMA; assay: flow cytometry on C6 cells stably transfected with human BCMA, 0.4 ug/ml antibody
Description: as §1, §3

human BCMA [3] = molecular target: T3, human BCMA; assay: flow cytometry on NCIH929 cells
Description: as §1
The reactivity of each mAb was monitored by FACs. The EM901 antibody, that recognizes BCMA, robustly bound NCIH929 cells. […] Geometric means quantifying these binding interactions are shown (FIG. 4).

| Binder | binding result (TACI) | binding result (BAFF receptor) | binding result (human BCMA [1]) | binding result (human TNFRSF12A) | binding result (human BCMA [2]) | binding result (human BCMA [3]) |
| --- | --- | --- | --- | --- | --- | --- |
| B1 | no binding | no binding | binds | no binding (tested: 0.4 ug/ml) |  |  |
| B2 |  |  |  | no binding (tested: 0.4 ug/ml) | binds |  |
| B3 |  |  |  | no binding (tested: 0.4 ug/ml) | binds |  |
| B4 |  |  |  | no binding (tested: 0.4 ug/ml) |  | binds |
| B5 | no binding | no binding |  | no binding (tested: 0.4 ug/ml) |  | binds |
